Biological target: T1, immobilized OSM (Homo sapiens, UniProt P13725)
T1 construct: purchased R&D Systems 671-GP
T1 sequence (P13725 26-212 limits assumed): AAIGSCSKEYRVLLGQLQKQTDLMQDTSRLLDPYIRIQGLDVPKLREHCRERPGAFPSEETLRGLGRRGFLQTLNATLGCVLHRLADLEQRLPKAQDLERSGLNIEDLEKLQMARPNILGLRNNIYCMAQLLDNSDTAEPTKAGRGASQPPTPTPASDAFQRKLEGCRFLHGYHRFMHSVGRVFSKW
Test: SPR binding kinetics of gp130 on immobilized OSM
Conditions: 25 °C
Procedure: SPR assays were used to investigate the ability of SMI-10B13 to disrupt the binding of the OSM receptor. We began our SPR assays by replicating the gp130-to-immobilized OSM binding kinetic experiment published by Chollangi et al. to evaluate the reliability of our setup. In this experiment, increasing concentrations of gp130 were injected, and the association and dissociation phases were monitored. […] However, the signal generated was insufficient for meaningful results, likely due to the suboptimal availability of accessible binding sites for […], although maximum feasible concentrations of both immobilized and injected gp130 were reached. As a result, we shifted our focus to assess whether SMI-10B13 could influence the recruitment of gp130 to OSM in a surface competition binding assay. […] While this effect could be justified by site II competitive binding at high SMI concentrations, the NMR CSP experiments are indicative of SMI binding at site III (Figure ). […]
SPR experiments were performed on a Reichert SR7000 instrument that was fed by a Surveyor LC autosampler and pump. […] The real-time changes in refractive index units of the association and dissociation phases were monitored. […]

Kd: 20.5 nM
B1: gp130: glycoprotein 130 receptor subunit (R&D Systems, cat. #671-GP) injected over immobilized OSM in SPR (protein)
chain: ELLDPCGYISPESPVVQLHSNFTAVCVLKEKCMDYFHVNANYIVWKTNHFTIPKEQYTIINRTASSVTFTDIASLNIQLTCNILTFGQLEQNVYGITIISGLPPEKPKNLSCIVNEGKKMRCEWDGGRETHLETNFTLKSEWATHKFADCKAKRDTPTSCTVDYSTVYFVNIEVWVEAENALGKVTSDHINFDPVYKVKPNPPHNLSVINSEELSSILKLTWTNPSIKSVIILKYNIQYRTKDASTWSQIPPEDTASTRSSFTVQDLKPFTEYVFRIRCMKEDGKGYWSDWSEEASGITYEDRPSKAPSFWYKIDPSHTQGYRTVQLVWKTLPPFEANGKILDYEVTLTRWKSHLQNYTVNATKLTVNLTNDRYLATLTVRNLVGKSDAAVLTIPACDFQATHPVMDLKAFPKDNMLWVEWTTPRESVKKYILEWCVLSDKAPCITDWQQEDGTVHRTYLRGNLAESKCYLITVTPVYADGPGSPESIKAYLKQAPPSKGPTVRTKKVGKNEAVLEWDQLPVDVQNGFIRNYTIFYRTIIGNETAVNVDSSHTEYTLSSLTSDTLYMVRMAAYTDEGGKDGPEFTFTTPKFAQGEIE

Reference: publication PMC12362618, “Development of the First Small-Molecule Inhibitor Targeting Oncostatin M for Treatment of Breast Cancer” (Journal of Medicinal Chemistry, 2025)
